The target in one assay is PTHR1 wild-type receptor (UniProt Q03431).
Assay [1] deals with parathyroid hormone receptor 1 BRET-biosensor PTHR1_(Nluc/Halo618) (UniProt Q03431).
Assay [2] has the same target. The source holds these as a separate data set.

For the substance PTH(1-34) (peptide), the Supplementary Figure 6f: pEC50 of PTH(1-34), PTHR1 mediated cAMP response (FRET-based H187-EPAC cAMP sensor co-transfected with the wild-type receptor) (pEC50 (-log M)) in the assay with PTHR1 wild-type receptor turned out to be 9.52. The Supplementary Figure 6f: pEC50 of PTH(1-34), PTHR1 mediated cAMP response (FRET-based H187-EPAC cAMP sensor co-transfected with the biosensor PTHR1Nluc/Halo) (pEC50 (-log M)) in assay [1] worked out at 7.57. Moreover, the change in intramolecular BRET of the PTHR1 (Nluc/Halo618) sensor in intact cells, 96-well plate, 37 °C, saturating ligand (Fig. 3d); serial dilutions for a concentration-response curve (Fig. 3e) in assay [2] is 10%.
